Our source for the collision cross section values is the supplement of paper PMC10598134.

This series in a line: collision cross section of modified peptide (TIMS, N2, iRT-aligned); higher = larger / more extended gas-phase ion. In short, it runs like this: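 On a timsTOF Pro/HT (dda-PASEF, nitrogen, ~2.4 mbar), synthetic peptide pools were analysed after a 120-min nanoflow C18 separation at 60 °C and identified in MaxQuant. Three reference ions served for 1/K0 calibration, with run-wise alignment to the median iRT peptide deviation. Collision cross section comes from the Mason-Schamp equation, using the most abundant feature per charge state averaged over 1–3 technical replicates.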

The mark [1] stands for this setting: charge state: 2, modification: Glutarylation.
[2] abbreviates: charge state: 3, modification: Glutarylation.
The mark [3] stands for this setting: charge state: 2, modification: Nitro (Y).
Setting [4] is: charge state: 3, modification: Acetyl (K).
Where [5] appears, read: charge state: 2, modification: hydroxyisobutyryl.
The mark [6] stands for this setting: charge state: 3, modification: hydroxyisobutyryl.
[7] abbreviates: charge state: 2, modification: GlyGly (K).
[8] abbreviates: charge state: 3, modification: GlyGly (K).
Setting [9] is: charge state: 2, modification: Citrullination (R).
Where [10] appears, read: charge state: 3, modification: Trimethyl (K).
The mark [11] stands for this setting: charge state: 2, modification: Malonyl.
[12] abbreviates: charge state: 2, modification: Hydroxyproline.
[13] abbreviates: charge state: 2, modification: Formyl.
Setting [14] is: charge state: 2, modification: Trimethyl (K).
The mark [15] stands for this setting: charge state: 3, modification: Nitro (Y).
The mark [16] stands for this setting: charge state: 2, modification: Phospho (Y).
The mark [17] stands for this setting: charge state: 2, modification: Methyl (K).
The mark [18] stands for this setting: charge state: 3, modification: Methyl (K).
The mark [19] stands for this setting: charge state: 2, modification: Butyryl.
The mark [20] stands for this setting: charge state: 3, modification: Butyryl.

± gives the standard deviation.

“LGVATVAKGVCGACK [_LGVATVAK(Gluratylation)GVCGACK_]”: the collision cross section by setting is: under setting [1], 422.53 Å²; under setting [2], 500.02 Å². As to “DAEAAEATAEGALKAEK [_DAEAAEATAEGALK(Gluratylation)AEK_]”, the collision cross section came to 438.1 ± 0.96 Å² under setting [1] and 545.34 ± 0.13 Å² under setting [2]. In the case of “AIEINPDSAQPYK [_AIEINPDSAQPY(Nitro (Y))K_]”, the collision cross section under setting [3] worked out at 401.15 ± 0.18 Å². Turning to LDEKENLSAK [_LDEK(Crotonyl)ENLSAK_], the collision cross section (charge state: 2, modification: Crotonyl) amounted to 370.68 ± 0.26 Å². Sequence “VFIGNLNTLVVKKK [_VFIGNLNTLVVK(Acetyl (K))KK_]” came in with a collision cross section under setting [4] of 507.56 ± 1 Å². On to “IVSGKDYNVTANSK [_IVSGK(hydroxyisobutyryl)DYNVTANSK_]”, for which the collision cross section was 417.55 ± 0.55 Å² under setting [5] and 466.6 ± 0.46 Å² under setting [6].

In the case of “SSGPGGQNVNKVNSK [_SSGPGGQNVNK(GlyGly (K))VNSK_]”, the collision cross section by setting is: under setting [7], 407.13 ± 1.4 Å²; under setting [8], 459.52 ± 3 Å².

Turning to “ISSNFSSIIAEKLR [_ISSNFSSIIAEK(hydroxyisobutyryl)LR_]”, the collision cross section under setting [5] turned out to be 431.4 ± 1.4 Å². “AQVLAGGRGK [_AQVLAGGR(Citrullination (R))GK_]” showed a collision cross section under setting [9] of 333.54 ± 0.75 Å². On to “SDSGKPYYYNSQTK [_SDSGK(hydroxyisobutyryl)PYYYNSQTK_]”, for which the collision cross section is, setting by setting: under setting [5], 428.74 ± 0.3 Å²; under setting [6], 490.1 ± 3.9 Å². Consider “DHLSDKESK [_DHLSDK(hydroxyisobutyryl)ESK_]”, for which the collision cross section came out at 357.61 ± 1.9 Å² under setting [5] and 415.53 ± 4.4 Å² under setting [6]. Take SYVDTGGVSR [_SY(Nitro (Y))VDTGGVSR_]: under setting [3], the collision cross section is reported as 342.4 ± 0.16 Å². Under setting [10], “GAEKTEVAEPR [_GAEK(Trimethyl (K))TEVAEPR_]” returned a collision cross section of 447.07 ± 3.3 Å². For the setting “charge state: 2, modification: Biotin”, LQLEIDQKK [_LQLEIDQK(Biotin)K_] showed a collision cross section of 382.89 ± 0.23 Å².

Take ILDLKTGTVK [_ILDLK(Malonyl)TGTVK_]: under setting [11], the collision cross section stood at 359.66 ± 0.75 Å².

With DHLSDKESK [_DHLSDK(Gluratylation)ESK_], the collision cross section by setting is: under setting [1], 353.36 ± 0.63 Å²; under setting [2], 411.89 Å². “GDAGEPGRPGSPGK [_GDAGEPGRPGSP(Hydroxyproline)GK_]”: under setting [12], the collision cross section stood at 357.84 ± 0.8 Å². Under setting [13], ILDLKTGTVK [_ILDLK(Formyl)TGTVK_] came in with a collision cross section of 351.57 ± 1 Å². Turning to “GTISAPGKVVTAAAQAK [_GTISAPGK(Trimethyl (K))VVTAAAQAK_]”, the collision cross section reads like this: under setting [14], 476.61 ± 0.99 Å²; under setting [10], 496.52 ± 0.86 Å². On to “VGLQVVAVKAPGFGDNR [_VGLQVVAVK(Trimethyl (K))APGFGDNR_]”, for which the collision cross section was found to be 473 Å² under setting [14] and 497.24 ± 1.6 Å² under setting [10].

On to VYSGHQGR [_VY(Nitro (Y))SGHQGR_], for which the collision cross section under setting [3] is 327.94 ± 0.59 Å² and the collision cross section under setting [15] came to 418.62 ± 1.2 Å².

For the sequence “GDNGSVGEPGPK [_GDNGSVGEP(Hydroxyproline)GPK_]”, the collision cross section under setting [12] was 344.87 ± 1.1 Å². The sequence SEGFDTYR [_SEGFDTY(Phospho (Y))R_] displayed a collision cross section under setting [16] of 338.3 ± 0.78 Å². For “TLQKQSVVYGGK [_TLQK(GlyGly (K))QSVVYGGK_]”, the collision cross section turned out to be 403.57 ± 1.5 Å² under setting [7] and 459.43 ± 2 Å² under setting [8].

Regarding “ASDTSSETVFGKR [_ASDTSSETVFGK(Dimethyl (K))R_]”, the collision cross section (charge state: 2, modification: Dimethyl (K)) is 409.3 ± 1.1 Å² and the collision cross section (charge state: 3, modification: Dimethyl (K)) is given as 469.84 ± 1.6 Å². With “LDHLAEKFR [_LDHLAEK(hydroxyisobutyryl)FR_]”, the collision cross section runs as follows: under setting [5], 375.94 ± 0.8 Å²; under setting [6], 444.1 ± 2 Å².

For “LFVGGIKEDTEEHHLR [_LFVGGIK(Acetyl (K))EDTEEHHLR_]”, the collision cross section runs as follows: (charge state: 2, modification: Acetyl (K)) 494.34 Å²; under setting [4], 543.04 ± 0.75 Å². Regarding “VSPASSVDSNIPSSQGYKK [_VSPASSVDSNIPSSQGYK(Propionyl)K_]”, under “charge state: 3, modification: Propionyl”, the collision cross section is listed as 557.31 Å². Take “DTGEKLTVAENEAETK [_DTGEK(Methyl (K))LTVAENEAETK_]”: the collision cross section runs as follows: under setting [17], 429.8 ± 2.5 Å²; under setting [18], 482 ± 3.4 Å². For “LGNDFHTNKR [_LGNDFHTNK(Gluratylation)R_]”, the collision cross section came to 382 ± 0.1 Å² under setting [1] and 434.71 ± 2.9 Å² under setting [2].

Sequence “DSRGGGGNFGPGPGSNFR [_DSR(Methyl (R))GGGGNFGPGPGSNFR_]” had a collision cross section (charge state: 3, modification: Methyl (R)) of 480.39 ± 3.1 Å². “GAPGPQGPPGPPGK [_GAPGPQGPPGPP(Hydroxyproline)GK_]”: the collision cross section under setting [12] was 359.87 ± 0.26 Å². As to “VEPGSLESSPGLGRGR [_VEPGSLESSPGLGR(Citrullination (R))GR_]”, the collision cross section under setting [9] worked out at 418.2 ± 0.21 Å² and the collision cross section (charge state: 3, modification: Citrullination (R)) stood at 495.92 ± 3.1 Å².

Take “VLPSITTEILK [_VLPS(HexNAc (ST))ITTEILK_]”: for the setting “charge state: 2, modification: HexNAc (ST)”, the collision cross section is on record as 396.57 Å². In the case of “IVFSGNLFQHQEDSKK [_IVFSGNLFQHQEDSK(Methyl (K))K_]”, the collision cross section reads like this: under setting [17], 490.37 Å²; under setting [18], 529.21 ± 1.6 Å². Turning to “LLIVSTTPYSEKDTK [_LLIVSTTPYSEK(Butyryl)DTK_]”, the collision cross section is, setting by setting: under setting [19], 459.06 ± 0.51 Å²; under setting [20], 488.4 ± 2.4 Å².

Regarding “VGVEVPDVNIEGPEGKLK [_VGVEVPDVNIEGPEGK(Gluratylation)LK_]”, the collision cross section is, setting by setting: under setting [1], 461.98 ± 1.5 Å²; under setting [2], 531 ± 29 Å². “VGVEVPDVNIEGPEGKLK [_VGVEVPDVNIEGPEGK(Formyl)LK_]” yielded a collision cross section under setting [13] of 455.9 ± 1.7 Å². Take “DASTLQSQKAEGTGDAK [_DASTLQSQK(Butyryl)AEGTGDAK_]”: the collision cross section was found to be 440.14 ± 0.24 Å² under setting [19] and 511.91 ± 3.5 Å² under setting [20].

For the sequence LAPEYEAAATR [_LAPEY(Nitro (Y))EAAATR_], the collision cross section is, setting by setting: under setting [3], 362.69 ± 1.2 Å²; under setting [15], 436.11 ± 1.1 Å². As for “TFGKAAGPSLSHTSGGTQSK [_TFGK(Butyryl)AAGPSLSHTSGGTQSK_]”, the collision cross section under setting [19] was found to be 496.92 ± 1.5 Å² and the collision cross section under setting [20] was found to be 514.77 ± 3.5 Å². On to “SPSDSGYSYETIGKTTK [_SPSDSGYSYETIGK(Methyl (K))TTK_]”, for which the collision cross section under setting [17] came out at 466.86 ± 1.2 Å² and the collision cross section under setting [18] came to 512.24 ± 3.8 Å². In the case of “YIEIYVQKVNPSR [_YIEIYVQK(Methyl (K))VNPSR_]”, the collision cross section by setting is: under setting [17], 439.54 ± 1.7 Å²; under setting [18], 505.56 ± 3.7 Å². Sequence “SGNLTEDDKHNNAK [_SGNLTEDDK(Malonyl)HNNAK_]” came in with a collision cross section under setting [11] of 417.21 ± 1.6 Å². In the case of “DSSPTTNSKLSALQR [_DSSPTTNSK(Butyryl)LSALQR_]”, the collision cross section by setting is: under setting [19], 435.34 ± 0.76 Å²; under setting [20], 499.02 ± 1.9 Å². Consider YTTNNSSEQR [_Y(Phospho (Y))TTNNSSEQR_], for which the collision cross section under setting [16] is given as 363.91 ± 0.65 Å².
